The experiment has as its target Siglec-10Fc (human) (UniProt Q96LC7). Briefly: Biacore (SPR): control Fc compared with CD24Fc for binding of Siglec-10Fc; only the fitted value is printed under the KD line, no curve is drawn for the control. (In general: In SPR one partner is held on a chip, and binding of the other changes the refractive index at the surface.)
Chain of UniProt Q96LC7 (Q96LC7 17-546): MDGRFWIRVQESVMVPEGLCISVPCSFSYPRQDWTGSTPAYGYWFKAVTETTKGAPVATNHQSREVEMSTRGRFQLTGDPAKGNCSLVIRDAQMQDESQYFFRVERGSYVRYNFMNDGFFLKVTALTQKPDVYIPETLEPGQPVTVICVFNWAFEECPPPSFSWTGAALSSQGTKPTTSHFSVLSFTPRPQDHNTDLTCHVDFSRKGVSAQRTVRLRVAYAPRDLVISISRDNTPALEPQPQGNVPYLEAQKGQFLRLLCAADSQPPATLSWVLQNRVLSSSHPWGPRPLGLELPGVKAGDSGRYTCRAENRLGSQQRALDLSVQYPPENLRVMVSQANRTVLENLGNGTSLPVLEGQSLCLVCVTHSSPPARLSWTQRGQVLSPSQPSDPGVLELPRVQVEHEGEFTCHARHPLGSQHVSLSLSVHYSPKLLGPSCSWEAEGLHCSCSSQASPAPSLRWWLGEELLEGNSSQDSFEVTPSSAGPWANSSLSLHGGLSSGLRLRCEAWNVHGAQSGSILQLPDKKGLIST

Usually Kd stands for the free concentration of one partner at which half of the binding sites on the other are occupied at equilibrium, for simple one-to-one binding. Higher therefore signals weaker binding. Take control Fc: the dissociation constant (Kd) was found to be 16.2 µM.

For the origin of these results see patent publication US20210046154A1.
